Measured values published in article PMC6549159.

Molecular target: GFP-tagged mDia1ΔN3 (mouse) (UniProt O08808)
Chain of UniProt O08808 (O08808 543-1192, stated change not applied): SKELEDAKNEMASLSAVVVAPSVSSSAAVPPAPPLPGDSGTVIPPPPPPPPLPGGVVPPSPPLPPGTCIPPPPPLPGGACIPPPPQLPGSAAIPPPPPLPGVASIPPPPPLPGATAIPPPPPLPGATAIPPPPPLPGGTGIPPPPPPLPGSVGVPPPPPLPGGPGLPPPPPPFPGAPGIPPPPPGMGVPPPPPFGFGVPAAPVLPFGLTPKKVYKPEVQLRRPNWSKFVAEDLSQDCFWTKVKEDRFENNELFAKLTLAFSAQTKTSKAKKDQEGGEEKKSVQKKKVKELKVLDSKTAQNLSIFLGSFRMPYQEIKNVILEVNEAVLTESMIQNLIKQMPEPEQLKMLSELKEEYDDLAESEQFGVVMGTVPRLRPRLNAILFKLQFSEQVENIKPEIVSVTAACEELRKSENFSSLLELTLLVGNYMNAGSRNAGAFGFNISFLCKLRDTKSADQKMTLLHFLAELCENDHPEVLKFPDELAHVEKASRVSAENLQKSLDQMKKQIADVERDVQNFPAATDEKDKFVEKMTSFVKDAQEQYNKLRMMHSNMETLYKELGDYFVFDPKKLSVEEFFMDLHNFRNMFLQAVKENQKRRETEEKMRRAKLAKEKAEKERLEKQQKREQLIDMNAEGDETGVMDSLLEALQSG

- frequency of MyoG+ cells (immunofluorescence) in C2C12 myotubes co-expressing Phb2 FL and mDia1ΔN3 (mDia1ΔN3 alone: 15%): 53%
Substance: Flag-tagged mouse Phb2 FL (from UniProt O35129 1-299) (natural protein)
